Where two headings read alike, the source gives them in different places.
Experiments:
[1] = biological target: Hemagglutinin (HA); test: Hemagglutinin (HA) binding ELISA potency; antibody in Formulation #3, t=0
[2] = biological target: Hemagglutinin (HA)

B1: Ab 044 (antibody, V domains shown)
VH: QVQLLETGGGLVKPGQSLKLSCAASGFTFTSYAMHWVRQPPGKGLEWVAVVSYDGNYKYYADSVQGRFTISRDNSKNTLYLQMNSLRAEDTAVYYCAKDSRLRSLLYFEWLSQGYFNPWGQGTTLTVSS
VL: DIQMTQSPSSLSASVGDRVTITCRSSQSITFDYKNYLAWYQQKPGKAPKLLIYWGSYLESGVPSRFSGSGSGTDFTLTISSLQPEDFATYYCQQHYRTPPSFGQGTKVEIK
% Activity [1]: 123% | % Activity [2]: 97% | Average % Activity [2]: 110%
